Assay results: patent US20090202513A1, “RIBONUCLEASE AND THIAZOLIDINEDIONE COMPOUNDS AND THEIR USE IN METHODS TO TREAT CANCER” (The University of Vermont and State Agriculture College, priority 2008, published 2009)
“Also recorded” adds a separate entry of the source.

What was measured:
[1] = system: NCI-H292 lung cancer cell line; assay: MTS viability of cells transfected with siFra-1 or scramble control (siC); assay type: cell-based, human; details: 48 h
Method: Assays were performed on 96-well microtiter plates after plating of 7.7×10^4 cells/well. […] Cell viability was measured by the colorimetric methoxy-tetrazolium salt (MTS) Assay, CellTiter 96 Aqueous One Solution Cell Proliferation Assay (Promega), per the manufacturer's recommendations. MTS is a tetrazolium salt that undergoes a color change caused by its bioreduction of MTS into a water-soluble formazan. The conversion of MTS into the aqueous-soluble formazan is accomplished by dehydrogenase enzymes found in active mitochondria, with reaction occurring only in living cells. The quantity of formazan product measured by the amount of 490-nm light absorbance is directly proportional to the number of living cells in culture. Briefly, 20 μl of MTS reagent was added per well, and plates incubated at 37° C. for 2-3 h. Finally, the absorbance of each well was read at 490 nm and 650 nm. ΔOD from these two wavelengths were reported as the corrected viability. Fold changes were calculated with respect to the control as a measure of cell viability.
siFra-1 RNA interference (RNAi) duplexes were constructed from sequence information on mature mRNA extracted from the EST database available through the National Center for Biotechnology Information internet site using the open frame region from the cDNA sequence of exon 2 of the Fra-1 gene. The siRNA pool sequences targeting Fra-1 corresponded to the 107-126, 124-143, 230-249 coding regions relative to the first nucleotide of the start codon. The sequences were BLAST-searched (NCBI database) against EST libraries to ensure the specificity of the siRNA molecule. The siRNA duplexes or a scramble control were transfected into cancer lines using Lipofectamine 2000 (Invitrogen) as recommended by the manufacturer. Cells were incubated with complexes overnight, and the medium was replaced the next day. Cells were allowed to recover for 48 hours before treatments.
Cells were transfected with siFra-1 or scramble control (siC) and left to rest for 48 h before treatment. […] The PPARγ inhibitor GW9662 (2 μM) was added to observe the influence of PPARγ.

[2] = i.v. 2.5 mg/kg, twice a week for 2 weeks; previous studies, personal communication; cited from earlier work

In the case of `O=C(Nc1ccccc1)c1cc([N+](=O)[O-])ccc1Cl` [GW9662, reference compound], the “influence of PPARγ antagonist on the synergistic effect of ranpirnase and rosiglitazone” value ([1]; GW9662 2 μM added to the combination) is reported as “did not significantly modify the synergistic effect of ranpirnase and rosiglitazone”.

B1: ranpirnase (protein, UniProt P22069 1-104, looked up)
Protein P-30: QDWLTFQKKHITNTRDVDCDNIMSTNLFHCKDKNTFIYSRPEPVKAICKGIIASKNVLTTSEFYLSDCNVTSRPCKYKLKKSTNKFCVTCENQAPVHFVGVGSC
notes: RNase extracted from Rana pipiens, the Northern leopard frog; registered trademark name ONCONASE™
For B1, the “effect of Fra-1 knock-down (siFra-1 vs siC) on efficacy / cell killing of the single drug” value ([1]; ranpirnase 0.1, 1 or 10 μg/mL, rosiglitazone 10 or 20 μM) is listed as “significantly increased the efficacy of ranpirnase alone at all concentrations; also recorded: increases cell killing by ranpirnase (0.1, 1, or 10 μg/mL) in a concentration-dependent manner”, the “cell viability (MTS)” value ([1]; ranpirnase 0.1, 1 or 10 μg/mL) is listed as “reduced viability in a dose-dependent manner” and the “apoptosis induction in vivo” value [2] is listed as “effective in producing apoptosis”. The “toxicity to the animals” value [2] was “non-toxic to the animals”.
